Experiments:
Test in all cases: intermolecular Diels-Alder kinetics
[1] = substrate: C=C/C=C/NC(=O)OCc1ccc(C(=O)OC)cc1; assay type: biochemical, Parafrankia colletiae; settings: co-substrate 2, PBS pH 7.4, 37 °C
From the text: intermolecular Diels-Alder kinetics on AbnU

[2] = substrate: C=CC(=O)N(C)C; assay type: biochemical, Streptomyces rugosporus; settings: co-substrate 1a, PBS pH 7.4, 37 °C
From the text: (§1) intermolecular Diels-Alder kinetics on PyrI4

[3] = substrate: C=C/C=C/NC(=O)OCc1ccc(C(=O)OC)cc1; assay type: biochemical, Streptomyces rugosporus; settings: co-substrate 2, PBS pH 7.4, 37 °C
From the text: as §1

Protein	Km [1] [µM]	kcat [1] [s⁻¹]	Km [2] [µM]	kcat [2] [s⁻¹]	Km [3] [µM]	kcat [3] [s⁻¹]
AbnU (Parafrankia colletiae) (protein, N-terminal poly-His tag, pET28a(+), codon-optimised synthetic gene, E. coli; dimer) MSVVHEGIWEPQIRNEQNVNVADPQVGQIGSYYDELYDSSRELLGITIGRYEIRYKKVGGAVLTYYSEDLFLRDGIIHAEGWADFNDVKNGVWVGYPAVGLDGVYRGLDGRREWRVIEPDQPVEARISLHG	200 ± 10	1.17e-05 ± 2.8e-07	–	–	–	–
PyrI4 (Streptomyces rugosporus) (protein, full length, N-terminal poly-His tag, pET28a(+), codon-optimised synthetic gene, E. coli) MTTPQIDERAMEAGAAALQETIVDPGPLDVTALAVAAALAAGLHSAADDPAAALDKCIVLDELTEFAEKLVVHDRPGGIGTTVEYVEVYEDASGVRLGTATGNAVVLKMEPHMWQFHQSVSELADGSFEAVGVIDCTAMLRRMTQVLRVTGRSGRYAGKSGFMTLAISDPNQRPPHYSVQVVLC	–	–	100000 ± 1250	6.39e-06 ± 5.6e-07	200 ± 10	6.39e-06 ± 5.6e-07

— article PMC9814550, “Exo-selective intermolecular Diels–Alder reaction by PyrI4 and AbnU on non-natural substrates” (Communications Chemistry, 2021)
